Source: patent US20100273988A1 (Chugai, published 2010)

Columns and labels:
[1] = target: HB-EGF protein (R&D Systems, Inc., 259-HE) (human, UniProt Q99075 63-148); experiment: cell-based or functional assay
[2] = target: proHB-EGF mutated at the protease cleavage site, expressed on Ba/F3 cells (HB-EGF_Ba/F3) (human) (UniProt Q99075); experiment: flow cytometry, hybridoma culture supernatant on HB-EGF_Ba/F3 cells, FITC-anti-mouse IgG; EXP. 2 (no-mAb control 6.9)
[3] = target: proHB-EGF mutated at the protease cleavage site, expressed on Ba/F3 cells (HB-EGF_Ba/F3) (human) (UniProt Q99075); experiment: flow cytometry, hybridoma culture supernatant on HB-EGF_Ba/F3 cells, FITC-anti-mouse IgG; EXP. 1 (no-mAb control 19.1)

Sequence of proHB-EGF mutated at the protease cleavage site, expressed on Ba/F3 cells (HB-EGF_Ba/F3) (human) (Q99075 20-208 limits assumed, change not shown): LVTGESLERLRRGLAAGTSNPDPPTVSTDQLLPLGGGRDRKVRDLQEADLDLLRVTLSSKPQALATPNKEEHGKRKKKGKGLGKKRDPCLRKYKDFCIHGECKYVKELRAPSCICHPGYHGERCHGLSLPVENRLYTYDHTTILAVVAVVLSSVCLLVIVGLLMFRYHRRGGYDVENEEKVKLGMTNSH
Sequence of HB-EGF protein (R&D Systems, Inc., 259-HE) (Q99075 63-148 limits assumed): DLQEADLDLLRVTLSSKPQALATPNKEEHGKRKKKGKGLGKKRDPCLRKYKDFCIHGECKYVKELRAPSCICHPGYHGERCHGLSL

B1: HC-15 (antibody, V domains shown)
VH: EVQLQQSGPELVKPGASVKISCKASGYSFTGYYMHWVKQSPEKRLEWIGEINPRTGITTYNQKFKAKATLTVDKSSSTAYMQLKSLTSEDSAVYYCARVGSSGPFTYWGQGTLVTVSA
VL: DIVMTQSPSSLSVSAGDKVTMSCKSSQSLLNSRNQKNYLAWYQQKPWQPPKLLIYGASTRESGVPDRFTGSGSGTDFTLTISSVQAEDLAVYYCQNDYSYPFTFGTGTKLEIK
[1]
  EC50 (nM) of the growth-inhibiting effect on EGFR_Ba/F3 cells in the presence of HB-EGF (80 ng/mL): 3.8 nM
[2]
  FACS (GEO-mean): 234 GEO-mean
[3]
  FACS (GEO-mean): 594 GEO-mean
